Data as given in patent US6086895.

Biological target: fibronectin (125I labelled)
Assay: inhibition assay in tubes; control lysate undiluted; 125I fibronectin bound to S. aureus Cowan I cells (competitor)

## lysate of E. coli TG1 with pUC18-vector without insert (negative control) (pool or library)
  % binding in relation to control without lysate: 83.3%
